Laboratory results as given in the supplement of paper PMC12338614.
± gives the uncertainty stated by the source.

B1: library; numbered along this chain (parent)
chain: MEVVDPQQLGMFTEGELMSVGMDTFIHRIDSTEVIYQPRRKRAKLIGKYLMGDLLGEGSYGKVKEVLDSETLCRRAVKILKKKKLRRIPNGEANVKKEIQLLRRLRHKNVIQLVDVLYNEEKQKMYMVMEYCVCGMQEMLDSVPEKRFPVCQAHGYFCQLIDGLEYLHSQGIVHKDIKPGNLLLTTGGTLKISDLGVAEALHPFAADDTCRTSQGSPAFQPPEIANGLDTFSGFKVDIWSAGVTLYNITTGLYPFEGDNIYKLFENIGKGSYAIPGDCGPPLSDLLKGMLEYEPAKRFSIRQIRQHSWFRKKHPPAEAPVPIPPSPDTKDRWRSMTVVPYLEDLHGADEDEDLFDIEDDIIYTQDFTVPGQVPEEEASHNGQRRGLPKAVCMNGTEAAQLSTKSRAEGRAPNPARKACSASSKIRRLSACKQQ

Variants of: B1
Experiment: STK11 functional score (HeLa growth suppression), rescaled enrichment; synonymous median = 1, nonsense median = 0 (normalised score)
Conditions: with HeLa; variant type: missense
In short: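 Functional scores are post/pre-selection log ratios corrected to wild type, rescaled to synonymous and nonsense medians, merged over codons and replicate transfections, and given bootstrapped error. They come from POPCode libraries of codon-optimised STK11 integrated by Bxb1 at an AAVS1 landing pad in HeLa, three regions each transfected three times, with BFP-negative, mCherry-positive integrants sorted by FACS and tiled gDNA amplicons sequenced on NextSeq.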

S193I and V337P are within error of each other in STK11 functional score: 1.17 ± 0.54 for the first, 1.58 ± 0.14 for the second.

V337R and M51R are within error of each other in STK11 functional score: 0.662 ± 0.2 for the first, 1.16 ± 0.5 for the second.

Going from P179A to F354I, the STK11 functional score rises from 0.764 ± 0.091 to 1.32 ± 0.16.

Y166K and D229P are within error of each other in STK11 functional score: 1.56 ± 0.29 for the first, 1.68 ± 0.15 for the second.

Going from G187W to G187L, the STK11 functional score falls from 1.65 ± 0.13 to 1.27 ± 0.2.

Going from G56M to G56I, the STK11 functional score falls from 1 ± 0.093 to 0.188 ± 0.091.

Compared with A389F, S240P is lower in STK11 functional score: 1.33 ± 0.27 for the first, -0.0488 ± 0.11 for the second.

C158I and V320T are within error of each other in STK11 functional score: 1.51 ± 0.3 for the first, 1.57 ± 0.27 for the second.

Compared with H174I, T13V is higher in STK11 functional score: 0.662 ± 0.19 for the first, 1.6 ± 0.25 for the second.

Y118H and S422G are within error of each other in STK11 functional score: 1.14 ± 0.64 for the first, 1.49 ± 0.26 for the second.

S422K and M18H are within error of each other in STK11 functional score: 1.53 ± 0.12 for the first, 1.37 ± 0.18 for the second.

K122P and K122D are within error of each other in STK11 functional score: 1.68 ± 0.28 for the first, 1.52 ± 0.36 for the second.

Compared with A200W, T186C is higher in STK11 functional score: 0.861 ± 0.091 for the first, 1.19 ± 0.2 for the second.

E120N and P280N are within error of each other in STK11 functional score: 1.68 ± 0.39 for the first, 1.63 ± 0.21 for the second.

A198L and N393C are within error of each other in STK11 functional score: 1.13 ± 0.32 for the first, 1.54 ± 0.18 for the second.

N393I and N393M are within error of each other in STK11 functional score: 1.39 ± 0.41 for the first, 1.48 ± 0.24 for the second.

N393V and V116L are within error of each other in STK11 functional score: 0.689 ± 0.33 for the first, 1.14 ± 0.23 for the second.

G135C and G135E are within error of each other in STK11 functional score: 1.54 ± 0.27 for the first, 1.45 ± 0.13 for the second.

G135I and P321D are within error of each other in STK11 functional score: 1.69 ± 0.39 for the first, 1.55 ± 0.18 for the second.

Compared with E98W, G251E is higher in STK11 functional score: 0.16 ± 0.15 for the first, 0.412 ± 0.098 for the second.

Going from I88Y to Y292V, the STK11 functional score falls from 1.67 ± 0.21 to 0.931 ± 0.12.

Going from I79H to P387A, the STK11 functional score rises from -0.113 ± 0.19 to 1.32 ± 0.35.

P387T and D208E are within error of each other in STK11 functional score: 1.56 ± 0.24 for the first, 1.38 ± 0.51 for the second.

D208W and K423A are within error of each other in STK11 functional score: 0.524 ± 0.58 for the first, 0.687 ± 0.66 for the second.

K423Q and M129R are within error of each other in STK11 functional score: 0.701 ± 0.61 for the first, 1.13 ± 0.28 for the second.

First: E70A
Second: R39C
The STK11 functional score of the first is higher: 1.43 ± 0.43 for the first, 0.223 ± 0.2 for the second.

L67W and L67D are within error of each other in STK11 functional score: 0.675 ± 0.08 for the first, 0.672 ± 0.33 for the second.

A420L and K312N are within error of each other in STK11 functional score: 1.61 ± 0.16 for the first, 1.58 ± 0.43 for the second.

E396D and R40A are within error of each other in STK11 functional score: 1.45 ± 0.49 for the first, 1.6 ± 0.36 for the second.

R405S and R405T are within error of each other in STK11 functional score: 1.54 ± 0.37 for the first, 1.24 ± 0.43 for the second.

Compared with Q399G, L85Y is lower in STK11 functional score: 1.51 ± 0.28 for the first, 0.234 ± 0.093 for the second.

Going from I111F to T71C, the STK11 functional score rises from 0.365 ± 0.45 to 1.33 ± 0.5.

G163T and G163E are within error of each other in STK11 functional score: 0.008 ± 0.28 for the first, -0.0159 ± 0.21 for the second.

G15Y and S299T are within error of each other in STK11 functional score: 1.58 ± 0.29 for the first, 1.55 ± 0.16 for the second.

N90A and N90R are within error of each other in STK11 functional score: 1.14 ± 0.72 for the first, 1.01 ± 0.18 for the second.

P275D and I260M are within error of each other in STK11 functional score: 1.63 ± 0.17 for the first, 1.32 ± 0.26 for the second.

Compared with G408A, L201G is lower in STK11 functional score: 1.61 ± 0.34 for the first, 0.745 ± 0.38 for the second.

T363H and R426N are within error of each other in STK11 functional score: 1.17 ± 0.46 for the first, 1.58 ± 0.27 for the second.

D68Q and D359G are within error of each other in STK11 functional score: 0.949 ± 0.48 for the first, 1.36 ± 0.2 for the second.

T402L and R86V are within error of each other in STK11 functional score: 1.23 ± 0.27 for the first, 1.4 ± 0.26 for the second.

M289F and V150A are within error of each other in STK11 functional score: -0.0683 ± 0.074 for the first, 0.104 ± 0.15 for the second.

Going from G270L to G270D, the STK11 functional score rises from 0.945 ± 0.13 to 1.52 ± 0.2.

Going from R425V to Y36F, the STK11 functional score falls from 0.938 ± 0.18 to 0.511 ± 0.078.

A417I and A417L are the same in STK11 functional score: 1.51 ± 0.17 for the first, 1.51 ± 0.15 for the second.

A417E and A417S are within error of each other in STK11 functional score: 1.22 ± 0.18 for the first, 1.25 ± 0.36 for the second.

H379T and H379M are within error of each other in STK11 functional score: 1.31 ± 0.18 for the first, 1.52 ± 0.15 for the second.

First: K124I
Second: E145A
The STK11 functional score of the first is higher: 1.51 ± 0.15 for the first, 0.952 ± 0.13 for the second.

V143N and D327T are within error of each other in STK11 functional score: 1.68 ± 0.4 for the first, 1.6 ± 0.19 for the second.

Going from M127S to M127L, the STK11 functional score falls from 0.857 ± 0.15 to 0.382 ± 0.08.

S69A and D348I are within error of each other in STK11 functional score: 1.14 ± 0.16 for the first, 1.41 ± 0.13 for the second.

N247Q and N247D are within error of each other in STK11 functional score: 1.17 ± 0.23 for the first, 0.827 ± 0.46 for the second.

Going from H107G to T209F, the STK11 functional score falls from 0.812 ± 0.13 to 0.568 ± 0.088.

T209R and T336R are within error of each other in STK11 functional score: 1.27 ± 0.2 for the first, 1.54 ± 0.28 for the second.

Compared with M139G, G215W is lower in STK11 functional score: 0.563 ± 0.088 for the first, 0.29 ± 0.091 for the second.

R383K and R383D are within error of each other in STK11 functional score: 1.57 ± 0.2 for the first, 1.49 ± 0.32 for the second.

Compared with R383F, V243W is lower in STK11 functional score: 1.2 ± 0.17 for the first, 0.598 ± 0.099 for the second.

T249R and G276V are within error of each other in STK11 functional score: 1.28 ± 0.31 for the first, 1.05 ± 0.19 for the second.

R331E and G171A are within error of each other in STK11 functional score: 1.12 ± 0.55 for the first, 1.18 ± 0.4 for the second.

T244F and E14V are within error of each other in STK11 functional score: 0.698 ± 0.082 for the first, 1.03 ± 0.29 for the second.

C73W and L183D are within error of each other in STK11 functional score: 0.426 ± 0.11 for the first, 0.119 ± 0.32 for the second.

P38F and Y362G are within error of each other in STK11 functional score: 1.31 ± 0.25 for the first, 1.15 ± 0.18 for the second.

E199W and Q364D are within error of each other in STK11 functional score: 0.303 ± 0.12 for the first, 0.845 ± 0.44 for the second.

Q364Y and A318F are within error of each other in STK11 functional score: 1.53 ± 0.17 for the first, 1.6 ± 0.22 for the second.

Compared with C132T, C132F is lower in STK11 functional score: 1.52 ± 0.24 for the first, 0.255 ± 0.089 for the second.

Compared with K287W, I224L is higher in STK11 functional score: 0.0714 ± 0.29 for the first, 1.28 ± 0.19 for the second.

I224E and L263M are within error of each other in STK11 functional score: 1.03 ± 0.86 for the first, 0.891 ± 0.17 for the second.

Going from L263F to P413I, the STK11 functional score rises from 0.857 ± 0.29 to 1.56 ± 0.28.

V110C and K97G are within error of each other in STK11 functional score: 0.955 ± 0.44 for the first, 0.699 ± 0.38 for the second.

First: G227A
Second: G227S
The STK11 functional score of the first is lower: 0.273 ± 0.11 for the first, 1.49 ± 0.38 for the second.

Compared with R297S, K78G is higher in STK11 functional score: -0.196 ± 0.08 for the first, 0.0293 ± 0.084 for the second.

Compared with K81N, Q123L is lower in STK11 functional score: 1.37 ± 0.34 for the first, 0.679 ± 0.16 for the second.

L400I and L400Y are the same in STK11 functional score: 1.55 ± 0.28 for the first, 1.55 ± 0.2 for the second.

Going from N181S to S378V, the STK11 functional score rises from -0.0295 ± 0.073 to 1.04 ± 0.17.

D237N and S59G are within error of each other in STK11 functional score: 1.36 ± 0.7 for the first, 1.65 ± 0.34 for the second.

L164T and E374D are within error of each other in STK11 functional score: 0.864 ± 0.19 for the first, 0.971 ± 0.47 for the second.

Y131W and C278Q are within error of each other in STK11 functional score: 0.739 ± 0.093 for the first, 0.612 ± 0.12 for the second.

L72I and K41C are within error of each other in STK11 functional score: 1.19 ± 0.24 for the first, 1.47 ± 0.3 for the second.

A406R and S283V are within error of each other in STK11 functional score: 1.59 ± 0.28 for the first, 1.17 ± 0.29 for the second.

First: N380E
Second: Q371W
The STK11 functional score of the first is higher: 1.48 ± 0.33 for the first, 0.748 ± 0.14 for the second.

Going from K96P to S232N, the STK11 functional score rises from 0.38 ± 0.12 to 1.28 ± 0.44.

First: L341H
Second: R310L
The STK11 functional score of the first is lower: 0.315 ± 0.23 for the first, 1.37 ± 0.27 for the second.

Compared with S19P, G61W is lower in STK11 functional score: 1.32 ± 0.23 for the first, 0.248 ± 0.097 for the second.

First: L140C
Second: L50S
The STK11 functional score of the first is lower: 0.555 ± 0.35 for the first, 1.09 ± 0.12 for the second.

Q382G gave an STK11 functional score of 1.4 ± 0.24.
